Measured values from publication PMC11559096.

How the values were obtained:
[1] = molecular target: MHV-2 S2 fragments made by trypsin after receptor binding (69 and 67 kDa) (mouse hepatitis virus type 2 (MHV-2)); assay: SDS-PAGE of samples heated in 1% SDS (dissociation temperature of the trimer); MHV-2 with receptor, then trypsin at 37°C, in the presence of the HR2-peptide; 5 mM Pefabloc SC and 1% SDS on ice, then 10 min at the indicated temperatures; western blot with MAb10G; trimer to monomers
[2] = molecular target: MHV-2 S2 fragments made by trypsin after receptor binding (69 and 67 kDa) (mouse hepatitis virus type 2 (MHV-2)); assay: SDS-PAGE of samples heated in 1% SDS (dissociation temperature of the trimer); post-fusion state (MHV-2 with receptor, then trypsin at 37°C), no HR2-peptide; 5 mM Pefabloc SC and 1% SDS on ice, then 10 min at the indicated temperatures; western blot with MAb10G; trimer to monomers
[3] = molecular target: MHV-2 spike (S) protein, uncleaved 180 kDa, on authentic virus (mouse hepatitis virus type 2 (MHV-2)); assay: SDS-PAGE of samples heated in 1% SDS (dissociation temperature of the trimer); receptor-binding state (MHV-2 with soluble receptor), with or without HR2-peptide; 5 mM Pefabloc SC and 1% SDS on ice, then 10 min at the indicated temperatures; western blot with MAb10G; trimer to monomers
[4] = molecular target: MHV-2 spike (S) protein, uncleaved 180 kDa, on authentic virus (mouse hepatitis virus type 2 (MHV-2)); assay: SDS-PAGE of samples heated in 1% SDS (dissociation temperature of the trimer); pre-fusion state (untreated MHV-2), with or without HR2-peptide; 5 mM Pefabloc SC and 1% SDS on ice, then 10 min at the indicated temperatures; western blot with MAb10G; trimer to monomers

Substance | dissociation temperature of the trimer in 1% SDS [1] [°C] | dissociation temperature of the trimer in 1% SDS [2] [°C] | stoichiometry N [2] | dissociation temperature of the trimer in 1% SDS [3] [°C] | dissociation temperature of the trimer in 1% SDS [4] [°C] | stoichiometry N [4]
MHV-2 S2 fragments made by trypsin after receptor binding (69 and 67 kDa) (domain or fragment) | 80 | 100 | 3 |  |  | 
MHV-2 spike (S) protein, uncleaved 180 kDa, on authentic virus (natural protein) |  |  |  | 65 | < 25 | 3
